± gives the standard deviation of the averaged measurements.
Experiment: total protein half-life in vivo (active degradation + dilution); higher = more stable protein
[1] = E. coli NCM3722 delta-clpP delta-lon delta-hslV, growth: N-lim chemostat, doubling time 6 h
[2] = E. coli NCM3722 delta-clpP, growth: N-lim chemostat, doubling time 6 h
[3] = E. coli NCM3722 delta-hslV, growth: N-lim chemostat, doubling time 6 h
[4] = E. coli NCM3722 delta-lon, growth: N-lim chemostat, doubling time 6 h
[5] = E. coli NCM3722 delta-smpB, growth: N-lim chemostat, doubling time 6 h
[6] = wild type E. coli NCM3722, growth: C-lim chemostat, doubling time 3 h
[7] = wild type E. coli NCM3722, growth: C-lim chemostat, doubling time 6 h
[8] = wild type E. coli NCM3722, growth: C-lim chemostat, doubling time 12 h
[9] = wild type E. coli NCM3722, growth: N-lim chemostat, doubling time 6 h
[10] = wild type E. coli NCM3722, growth: N-lim chemostat, doubling time 12 h
[11] = wild type E. coli NCM3722, growth: P-lim chemostat, doubling time 6 h
[12] = wild type E. coli NCM3722, growth: P-lim chemostat, doubling time 12 h

Sequence	total protein half-life in vivo [1] [h]	total protein half-life in vivo [2] [h]	total protein half-life in vivo [3] [h]	total protein half-life in vivo [4] [h]	total protein half-life in vivo [5] [h]	total protein half-life in vivo [6] [h]	total protein half-life in vivo [7] [h]	total protein half-life in vivo [8] [h]	total protein half-life in vivo [9] [h]	total protein half-life in vivo [10] [h]	total protein half-life in vivo [11] [h]	total protein half-life in vivo [12] [h]
MKVMRTTVATVVAATLSMSAFSVFAEASLTGAGATFPAPVYAKWADTYQKETGNKVNYQGIGSSGGVKQIIANTVDFGASDAPLSDEKLAQEGLFQFPTVIGGVVLAVNIPGLKSGELVLDGKTLGDIYLGKIKKWDDEAIAKLNPGLKLPSQNIAVVRRADGSGTSFVFTSYLAKVNEEWKNNVGTGSTVKWPIGLGGKGNDGIAAFVQRLPGAIGYVEYAYAKQNNLAYTKLISADGKPVSPTEENFANAAKGADWSKTFAQDLTNQKGEDAWPITSTTFILIHKDQKKPEQGTEVLKFFDWAYKTGAKQANDLDYASLPDSVVEQVRAAWKTNIKDSSGKPLY [P0AG82]	4.1 ± 0.22	5.18 ± 0.54	6.12 ± 0.3	6.31 ± 0.76	6.08 ± 0.12	3.42 ± 0.057	6.04 ± 0.31	11.7 ± 0.42	6.11 ± 0.43	12.9 ± 0.66	5.67 ± 0.093	11.5 ± 0.23
MKRVLFFLLMIFVSFGVIADCEIQAKDHDCFTIFAKGTIFSAFPVLNNKAMWRWYQNEDIGEYYWQTELGTCKNNKFTPSGARLLIRVGSLRLNENHAIKGTLQELINTAEKTAFLGDRFRSYIRAGIYQKKSSDPVQLLAVLDNSIMVKYFKDEKPTYARMTAHLPNKNESYECLIKIQHELIRSEEK	1.81	–	–	–	1.13	–	–	10.3	–	4.57	–	–
MLDLFKAIGLGLVVLLPLANPLTTVALFLGLAGNMNSAERNRQSLMASVYVFAIMMVAYYAGQLVMDTFGISIPGLRIAGGLIVAFIGFRMLFPQQKAIDSPEAKSKSEELEDEPSANIAFVPLAMPSTAGPGTIAMIISSASTVRQSSTFADWVLMVAPPLIFFLVAVILWGSLRSSGAIMRLVGKGGIEAISRLMGFLLVCMGVQFIINGILEIIKTYH [P0AEY1]	–	6.57 ± 0.74	5.91	6.14 ± 0.6	6.12 ± 0.25	–	5.73 ± 0.56	11.1 ± 0.56	–	10.7	6.23 ± 0.11	13 ± 1
MNDTYQPINCDDYDNLELACQHHLMLTLELKDGEKLQAKASDLVSRKNVEYLVVEAAGETRELRLDKITSFSHPEIGTVVVSES [P0AFW8]	–	4.86 ± 0.14	1.83	2.15 ± 0.34	1.79 ± 0.12	–	1.91	3.49 ± 0.41	2.05 ± 0.44	3.37	3.17 ± 1.2	5.3 ± 1.6
MNILGFFQRLGRALQLPIAVLPVAALLLRFGQPDLLNVAFIAQAGGAIFDNLALIFAIGVASSWSKDSAGAAALAGAVGYFVLTKAMVTINPEINMGVLAGIITGLVGGAAYNRWSDIKLPDFLSFFGGKRFVPIATGFFCLVLAAIFGYVWPPVQHAIHAGGEWIVSAGALGSGIFGFINRLLIPTGLHQVLNTIAWFQIGEFTNAAGTVFHGDINRFYAGDGTAGMFMSGFFPIMMFGLPGAALAMYFAAPKERRPMVGGMLLSVAVTAFLTGVTEPLEFLFMFLAPLLYLLHALLTGISLFVATLLGIHAGFSFSAGAIDYALMYNLPAASQNVWMLLVMGVIFFAIYFVVFSLVIRMFNLKTPGREDKEDEIVTEEANSNTEEGLTQLATNYIAAVGGTDNLKAIDACITRLRLTVADSARVNDTMCKRLGASGVVKLNKQTIQVIVGAKAESIGDAMKKVVARGPVAAASAEATPATAAPVAKPQAVPNAVSIAELVSPITGDVVALDQVPDEAFASKAVGDGVAVKPTDKIVVSPAAGTIVKIFNTNHAFCLETEKGAEIVVHMGIDTVALEGKGFKRLVEEGAQVSAGQPILEMDLDYLNANARSMISPVVCSNIDDFSGLIIKAQGHIVAGQTPLYEIKK	6.3 ± 0.38	6.68 ± 1.1	6.55 ± 1.2	5.86 ± 0.12	5.83 ± 0.32	3.142 ± 0.004	5.88 ± 0.17	11.9 ± 1.4	5.91 ± 0.66	11.5 ± 0.56	6.04 ± 0.14	12.6 ± 0.78
MSEKSIVQEARDIQLAMELITLGARLQMLESETQLSRGRLIKLYKELRGSPPPKGMLPFSTDWFMTWEQNVHASMFCNAWQFLLKTGLCNGVDAVIKAYRLYLEQCPQAEEGPLLALTRAWTLVRFVESGLLQLSSCNCCGGNFITHAHQPVGSFACSLCQPPSRAVKRRKLSQNPADIIPQLLDEQRVQAV [P0ABY7]	> 8	4.44	–	–	–	0.252	0.52	–	–	–	–	–

From the supplement of paper PMC11246515
